± gives the standard error. Variants at the floor of the assay were thinned out.
B1: glmS ribozyme (parent)
chain: AUAAAAGCGCCAGAACUACAGAAAUGUAGUUGACGAGGAGGAGGUUUAUCGAAUUUUCGGCGGAUGCCUCCAAA

Legend:
Settings in all cases: with glucosamine-6-phosphate
glucosamine-6-phosphate [1] = variants of: B1; experiment: self-cleavage kobs at 640 uM GlcN6P; higher = faster cleavage; RNA array
Outline: (§1)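 Over ~14 h at 37 °C, tiles were imaged as glucosamine-6-phosphate (40 μM to 10 mM) in HEPES/KCl/Mg(OAc)2 buffer flowed across sequenced MiSeq chips. The chips carried barcoded ribozyme variants transcribed in situ by E. coli RNA polymerase and tracked with a hybridised Cy3 probe. After normalisation to baseline and to non-cleaving reference variants, one- or two-exponential decay fits of per-tile medians gave kobs. kcat and KM followed from weighted Michaelis–Menten fits across concentrations.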

glucosamine-6-phosphate [2] = variants of: B1; experiment: self-cleavage kobs at 2500 uM GlcN6P; higher = faster cleavage; RNA array
Outline: as §1

glucosamine-6-phosphate [3] = variants of: B1; experiment: self-cleavage kobs at 160 uM GlcN6P; higher = faster cleavage; RNA array
Outline: as §1

glucosamine-6-phosphate [4] = variants of: B1; experiment: self-cleavage kobs at 10000 uM GlcN6P; higher = faster cleavage; RNA array
Outline: as §1

Variant | self-cleavage kobs at 640 uM GlcN6P (glucosamine-6-phosphate [1]) | self-cleavage kobs at 2500 uM GlcN6P (glucosamine-6-phosphate [2]) | self-cleavage kobs at 160 uM GlcN6P (glucosamine-6-phosphate [3]) | self-cleavage kobs at 10000 uM GlcN6P (glucosamine-6-phosphate [4])
C16U G59C U65G | < 1e-05 s⁻¹ | < 1e-05 s⁻¹ | – | –
U31G U45C C67G | – | 0.00223 ± 0.0006 s⁻¹ | 0.000177 ± 7.3e-05 s⁻¹ | –
A14U G29A G63U | – | < 1e-05 s⁻¹ | < 1e-05 s⁻¹ | –
C10A A12C G43A C67U C70G | < 1e-05 s⁻¹ | < 1e-05 s⁻¹ | – | –
C8G G37A | < 1e-05 s⁻¹ | < 1e-05 s⁻¹ | < 1e-05 s⁻¹ | –
C34U G51A U57G U69G | 0.000271 ± 9.8e-05 s⁻¹ | – | – | 0.000296 ± 7.8e-05 s⁻¹
G60A C61G C67G | < 1e-05 s⁻¹ | – | – | –
C34U C61G | < 1e-05 s⁻¹ | – | < 1e-05 s⁻¹ | < 1e-05 s⁻¹
A6U G29C U56A | < 1e-05 s⁻¹ | – | – | –
C8A A12U C16G G41A C68A | < 1e-05 s⁻¹ | < 1e-05 s⁻¹ | < 1e-05 s⁻¹ | –
A14U A15C A48C U56A C67A | – | – | < 1e-05 s⁻¹ | –
G7A C50A G51A | < 1e-05 s⁻¹ | < 1e-05 s⁻¹ | < 1e-05 s⁻¹ | –
A52G G60A | – | – | < 1e-05 s⁻¹ | < 1e-05 s⁻¹
C10A U30A | < 1e-05 s⁻¹ | < 1e-05 s⁻¹ | < 1e-05 s⁻¹ | < 1e-05 s⁻¹
G38A U54G C68A | – | – | 5.08e-05 ± 2e-05 s⁻¹ | –
U30C G63U C68G | 9.11e-05 ± 1.9e-05 s⁻¹ | 5.6e-05 ± 1.4e-05 s⁻¹ | – | –
U31G U49C C67U | – | – | < 1e-05 s⁻¹ | –
C11A G44A C68A | < 1e-05 s⁻¹ | < 1e-05 s⁻¹ | – | –
C8A G60A C68A | – | < 1e-05 s⁻¹ | < 1e-05 s⁻¹ | –
C8A C34U G40A A52U | < 1e-05 s⁻¹ | < 1e-05 s⁻¹ | < 1e-05 s⁻¹ | < 1e-05 s⁻¹

Variant | self-cleavage kobs at 640 uM GlcN6P (glucosamine-6-phosphate [1]) | self-cleavage kobs at 2500 uM GlcN6P (glucosamine-6-phosphate [2]) | self-cleavage kobs at 160 uM GlcN6P (glucosamine-6-phosphate [3]) | self-cleavage kobs at 10000 uM GlcN6P (glucosamine-6-phosphate [4])
A12U G62U | < 1e-05 s⁻¹ | – | – | < 1e-05 s⁻¹
C10G G32C A52U | < 1e-05 s⁻¹ | < 1e-05 s⁻¹ | < 1e-05 s⁻¹ | –
G37A A42G C71G | 8.96e-05 ± 2.4e-05 s⁻¹ | 5.5e-05 ± 1.6e-05 s⁻¹ | – | 8.16e-05 ± 2.3e-05 s⁻¹
A15G A33G A53U | < 1e-05 s⁻¹ | – | – | –
C10G G63C U65G | – | < 1e-05 s⁻¹ | < 1e-05 s⁻¹ | –
G40C U56A | 0.000308 ± 6.3e-05 s⁻¹ | 0.00115 ± 0.00026 s⁻¹ | 0.000154 ± 3.3e-05 s⁻¹ | –
G7C C10G | < 1e-05 s⁻¹ | < 1e-05 s⁻¹ | < 1e-05 s⁻¹ | –
C10U A39U A52U C58G C71U | < 1e-05 s⁻¹ | < 1e-05 s⁻¹ | – | –
U31G U49G C67A | 4.09e-05 ± 1.4e-05 s⁻¹ | – | – | –
G32A G66U C68G | 0.000111 ± 3.9e-05 s⁻¹ | – | – | –
G9C G38C | – | – | < 1e-05 s⁻¹ | –
G7A A15U A53G | < 1e-05 s⁻¹ | – | – | –
C58U C67U U69A | 6.03e-05 ± 2.7e-05 s⁻¹ | 0.000214 ± 9e-05 s⁻¹ | – | –
G29U G44C | – | – | < 1e-05 s⁻¹ | –
U31G G32A | 0.000366 ± 7.2e-05 s⁻¹ | 0.000689 ± 0.00016 s⁻¹ | 2.88e-05 ± 1.4e-05 s⁻¹ | 0.00185 ± 0.00031 s⁻¹
G9A U57A | < 1e-05 s⁻¹ | < 1e-05 s⁻¹ | – | –
C8G C50A | – | < 1e-05 s⁻¹ | < 1e-05 s⁻¹ | < 1e-05 s⁻¹
G40U G51U C58U | – | – | < 1e-05 s⁻¹ | –
C10U U31C U49C | < 1e-05 s⁻¹ | – | – | –
U31A U47C U54G | 0.000284 ± 6e-05 s⁻¹ | 0.00068 ± 0.00013 s⁻¹ | – | –

Variant | self-cleavage kobs at 640 uM GlcN6P (glucosamine-6-phosphate [1]) | self-cleavage kobs at 2500 uM GlcN6P (glucosamine-6-phosphate [2]) | self-cleavage kobs at 160 uM GlcN6P (glucosamine-6-phosphate [3]) | self-cleavage kobs at 10000 uM GlcN6P (glucosamine-6-phosphate [4])
A36U A39G | < 1e-05 s⁻¹ | – | – | –
C50G G60A A64G | 6.58e-05 ± 2.3e-05 s⁻¹ | 0.000134 ± 5.2e-05 s⁻¹ | 8.18e-05 ± 2.1e-05 s⁻¹ | –
U31C C58A A64C | – | < 1e-05 s⁻¹ | < 1e-05 s⁻¹ | –
G40C G60U C67G | < 1e-05 s⁻¹ | < 1e-05 s⁻¹ | < 1e-05 s⁻¹ | –
G7U G40C G44U U47C G51U | – | < 1e-05 s⁻¹ | < 1e-05 s⁻¹ | –
A6U G29A U54G | – | – | < 1e-05 s⁻¹ | –
G7C C8G G9C C19A C61A | < 1e-05 s⁻¹ | < 1e-05 s⁻¹ | – | –
C8A C11A | < 1e-05 s⁻¹ | – | < 1e-05 s⁻¹ | < 1e-05 s⁻¹
G41A G51A C68G | < 1e-05 s⁻¹ | – | – | –
G7A A14C A36C A64U | < 1e-05 s⁻¹ | < 1e-05 s⁻¹ | < 1e-05 s⁻¹ | –
U46C U54A C61U | – | < 1e-05 s⁻¹ | < 1e-05 s⁻¹ | –
G32U A48U G60A | – | – | < 1e-05 s⁻¹ | –
G37C C50U A53G U56C | < 1e-05 s⁻¹ | – | – | –
A36U G41A U54G | < 1e-05 s⁻¹ | – | < 1e-05 s⁻¹ | –
G7U A36U C71A | – | – | < 1e-05 s⁻¹ | –
C11U A14G A52G | 8.93e-05 ± 1.6e-05 s⁻¹ | 0.00029 ± 8e-05 s⁻¹ | – | –
C50G C67G C70U C71A | 0.000149 ± 4.5e-05 s⁻¹ | 0.000157 ± 2.9e-05 s⁻¹ | – | –
G35A A53G G60C | < 1e-05 s⁻¹ | < 1e-05 s⁻¹ | – | –
